From US9840693B2, “Polypeptide hydrogels and uses related thereto” (Emory University, priority 2014, dated 2017)
“Also recorded” adds a separate entry of the source.

How the values were obtained:
[1] = Self-assembly of peptides into hydrogel at physiologic pH and osmolarity; format: physicochemical; details: for self-assembly into a hydrogel when mixed with peptide hydrogel R: mixed with R at a 1:10 ratio; for self-assemble at physiologic pH and osmolarity: peptide alone; for Self-Assembly: peptide alone at 1 % w/v
Source text: JAG-1 (CDDYYYGFGCNKFCRPR)(SEQ ID NO: 1) can be incorporated into the self-assembling peptides to generate bioactive scaffolds with the potential to regulate Notch signaling in a ligand density dependent manner. The self-assembling sequence RADA (or R) (RARADADARARADADA)(SEQ ID NO: 2) with a 7 glycine linker following the terminal alanine is followed by the active sequence of the Notch ligand Jagged-1 (JAG-1) to create the fusion peptide (RJ). As a control, the JAG-1 portion may be replaced with the scrambled sequence (RCGPDCFDNYGRYKYCF)(SEQ ID NO:4) (RS) with no known cell surface binding site can be used as a control to check for the specificity of JAG 1 in activating Notch-1 signaling. […] These peptide scaffolds self-assemble at physiological pH and osmolarity (in 295 mM sucrose solution) into nanofiber hydrogels. After synthesis, the peptides can be purified by high pressure liquid chromatography on reverse-phase columns. Purity can be assessed by HPLC and the presence of a correct composition by amino acid analysis.
The self-assembling peptide (R) and the peptides with Jag-1 (RJ) or scrambled (RS) attached are weighed out to create hydrogels of 1-3% w/v, i.e., hydrogels with varying % concentration from 1 to 3% w/v peptide wherein R is combined with RJ or RS in a ratio of 1:10.
A sucrose solution (295 mM) is added to the peptides and sonicated. The RJ or RS peptide solutions are mixed with the R solution at 1:10 and allowed to form the hydrogel. The time required to form the hydrogel depends on the concentration of the gel. In certain embodiments, the disclosure relates to the synthesis of self assembling peptides which contain the active ligand JAG-1 attached to it. This enables easy dose manipulation of JAG-1 to achieve Notch-1 activation.

[2] = Atomic force microscopy measurement of Young's modulus of hydrogels; format: physicochemical; details: in comparison with unmodified hydrogels at both 1 and 2% w/v
Method: (§1) Peptides have been created containing a ligand for Notch-1 activation that self assembles into a hydrogel. For determination of swelling ratio, the hydrogels were created in a […] total volume and allowed to swell in 295 mM sucrose solution. After 24 h, the wet weight of the gels was measured. The gels were then lyophilized and the dry weight noted. Swelling ratio was calculated as the (wet weight−dry weight)/wet weight. […] The average Young's modulus for 1% and 2% hydrogels was 500 Pa and 1800 Pa respectively (FIG. 1A).
Cardiac progenitor cells (CPCs) were isolated from 2 month old male Sprague Dawley rats by digesting the heart with Collagenase followed by magnetic sorting for cKit positive cells. The CPCs were cultured on Ham's F12 supplemented with FBS, LIF, bFGF, L-Glutamine and antibiotics. Single cell cloning was performed by limiting dilution to obtain CPCs with >90% expression of cKit and the cardiac transcription factors nkx2-5 and gata-4. […] The Young's modulus of the hydrogels was determined using an MFP-3DBIO atomic force microscope (Asylum Research; Santa Barbara, Calif.), with a 4.74 μm diameter bead tippedsilicon nitride cantilever.

[3] = Swelling ratio of hydrogels; format: physicochemical; details: n=3
Method: as §1

Notch1 [4] = test: Notch1 activation in CHO cells with Notch1-responsive YFP expression, 2D culture with peptide in media; format: cell-based; details: media containing peptide at 40 μm, 48 h
Method: (§2) CHO cells with Notch1-responsive YFP expression were cultured in media containing 20 or 40 μm R, RS or RJ for 48 h. […] These cells were also cultured in 3D in 1-3% w/v hydrogels composed of R, RS or RJ for 48 h.

Notch1 [5] = test: Notch1 activation in CHO cells with Notch1-responsive YFP expression, 3D culture in hydrogels; format: cell-based; details: 48 h
Method: as §2

[6] = system: Cardiac progenitor cells (CPCs); test: qPCR gene expression of CPCs cultured in hydrogels; format: cell-based, rat; details: 48 h
Method: Cardiac progenitor cells (CPCs) were isolated from 2 month old male Sprague Dawley rats by digesting the heart with Collagenase followed by magnetic sorting for cKit positive cells. The CPCs were cultured on Ham's F12 supplemented with FBS, LIF, bFGF, L-Glutamine and antibiotics. Single cell cloning was performed by limiting dilution to obtain CPCs with >90% expression of cKit and the cardiac transcription factors nkx2-5 and gata-4. CPCs were cultured in self assembling hydrogels of various concentrations (1-3% w/v) with either empty, scrambled or JAG-1 peptide in 1:10 ratio for 48 hrs in Millicell Insets. qRT-PCRs were performed using Power SYBR green on the StepOne Plus Applied Biosystems machine. The Young's modulus of the hydrogels was determined using an MFP-3DBIO atomic force microscope (Asylum Research; Santa Barbara, Calif.), with a 4.74 μm diameter bead tippedsilicon nitride cantilever.
CPCs were clonally expanded and characterized to be >96% Notch1+, >90% c-Kit+, nkx2-5+(nk2 homeobox 5) and gata4+(GATA binding protein 4). CPCs were cultured in 1 or 2% (w/v) SAP hydrogels (1R, 1RS, 1RJ or 2R, 2RS, 2RJ) for 48 h.

[7] = system: embryoid bodies (EBs) from mouse embryonic stem cells; test: qPCR gene expression of mouse embryoid bodies cultured in 1% hydrogels; format: cell-based; details: mouse EBs in 1% hydrogels
Method: To determine if gene expression changes in response to hydrogel-mediated Notch1 activation were conserved between stem/progenitor cells, day 2 embryoid bodies (EBs) from mouse embryonic stem cells were cultured in low concentration (1%) hydrogels for 48 h.

Substance: CDDYYYGFGCNKFCRPR [JAG-1]
- self-assembly into a hydrogel when mixed with peptide hydrogel R [1]: self-assembles into a hydrogel
- self-assemble at physiologic pH and osmolarity [1]: do not self-assemble

Substance: H2N-RARADADARARADADA-OH (H-RARADADARARADADA-OH) [unmodified/empty control]
- Self-Assembly [1]: yes

Substance: RARADADARARADADA(G7)(JAG-1) (RARADADARARADADAGGGGGGGCDDYYYGFGCNKFCRPR) [RJ]
- Self-Assembly [1]: no
- effect of addition of peptide to the SAP on Young's modulus [2]: did not alter the Young's modulus
- effect of peptide addition on network structure (swelling ratio) [3]: no significant effect
- Notch1 activation (YFP expression) (Notch1 [4]): significant increase
- Notch1 activation (YFP expression) (Notch1 [5]; 2% w/v hydrogel): maximum Notch1 activation; also recorded: highest levels of Notch1 activation
- Notch1 activation (YFP expression) (Notch1 [5]; further increase to 3% w/v hydrogel): did not promote Notch1 activation
- Notch1 signaling in CPCs ([6]; 1% hydrogels): activates Notch1 signaling
- Notch1 signaling in CPCs ([6]; 2% hydrogels): activates Notch1 signaling
- endothelial and smooth muscle gene expression ([6]; CPCs in 1% hydrogels): promotes
- expression of Hey1 (Notch1 downstream target) ([6]; CPCs in 1 or 2% hydrogels, qPCR): increased expression
- cardiac gene expression ([6]; CPCs in 2% hydrogels): promotes
- endothelial and smooth muscle gene expression [7]: promotes

Substance: RARADADARARADADA(G7)(SCR-1) (RARADADARARADADAGGGGGGGRCGPDCFDNYGRYKYCF) [RS, reference compound]
- Self-Assembly [1]: no
- effect of addition of peptide to the SAP on Young's modulus [2]: did not alter the Young's modulus
- effect of peptide addition on network structure (swelling ratio) [3]: no significant effect

Substance: RCGPDCFDNYGRYKYCF [SCR-1]
- self-assembly into a hydrogel when mixed with peptide hydrogel R [1]: self-assembles into a hydrogel
- self-assemble at physiologic pH and osmolarity [1]: do not self-assemble
